From paper PMC8586454, “Structural and Functional Insights Into Skl and Pal Endolysins, Two Cysteine-Amidases With Anti-pneumococcal Activity. Dithiothreitol (DTT) Effect on Lytic Activity” (Frontiers in Microbiology, 2021)
Where a chain is given by its changes, count along the chain named. Numbers in names are those of the source.

Legend:
[1] = biological target: T1, Pal (Streptococcus phage Dp-1, UniProt O03979); assay: SAXS of choline-bound dimer; format: binding; details: 20 mM PB pH 8.0, 4 °C; saturating choline
T1 construct: full-length, untagged, E. coli pT7-7 (pPal, amplified from pMSP11); DEAE-cellulose purified with choline elution, dialysed
T1 sequence (O03979 1-296): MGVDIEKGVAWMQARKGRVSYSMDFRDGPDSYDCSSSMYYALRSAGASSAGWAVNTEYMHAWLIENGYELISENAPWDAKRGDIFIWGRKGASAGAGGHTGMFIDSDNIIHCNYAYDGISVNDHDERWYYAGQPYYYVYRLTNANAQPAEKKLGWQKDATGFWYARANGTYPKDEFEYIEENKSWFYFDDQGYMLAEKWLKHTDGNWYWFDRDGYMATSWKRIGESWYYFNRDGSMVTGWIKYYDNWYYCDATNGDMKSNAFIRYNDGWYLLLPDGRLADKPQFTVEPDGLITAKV

[2] = biological target: Skl Y264H mutant (Streptococcus mitis prophage φSK137); assay: AUC; sedimentation equilibrium, 20°C, 50 mM Tris–HCl pH 8.0, increasing choline
[3] = biological target: Skl Y264H mutant (Streptococcus mitis prophage φSK137); assay: AUC; sedimentation velocity, 20°C, PB pH 6.5, under the conditions of the CD titration; choline saturating the lower affinity sites
[4] = biological target: Skl endolysin (N-acetylmuramoyl-L-alanine amidase of the Streptococcus mitis prophage φSK137), wild type (Streptococcus mitis prophage φSK137); assay: AUC; sedimentation equilibrium, 20°C, single-species model; choline-saturated
[5] = biological target: Skl endolysin (N-acetylmuramoyl-L-alanine amidase of the Streptococcus mitis prophage φSK137), wild type (Streptococcus mitis prophage φSK137); assay: SAXS; 4°C, 20 mM PB (Pal) or 50 mM Tris–HCl (Skl) pH 8.0, 2–8 mg/ml protein extrapolated to infinite dilution, saturating choline
[6] = biological target: Skl endolysin (N-acetylmuramoyl-L-alanine amidase of the Streptococcus mitis prophage φSK137), wild type (Streptococcus mitis prophage φSK137); assay: AUC; sedimentation velocity, 20°C, PB pH 6.5, under the conditions of the CD titration; choline saturating the lower affinity sites
[7] = biological target: the molecule itself; assay: SAXS; 4°C, 20 mM PB (Pal) or 50 mM Tris–HCl (Skl) pH 8.0, 2–8 mg/ml protein extrapolated to infinite dilution, saturating choline
[8] = biological target: the molecule itself; assay: non-reducing SDS-PAGE (intermolecular disulfide); 0.36 mg/ml protein pretreated with 40 mM iodoacetamide, then 1% SDS, sample buffer without β-mercaptoethanol (SB), 12% gel, Coomassie stain

Molecule: C[N+](C)(C)CCO [choline]
- SAXS of choline-bound dimer [1]: Pal dimer in complex with choline

Molecule: Skl Y264H mutant (enzyme)
- stoichiometry N [2]: 2
- percent remaining as monomer [3]: 50%

Molecule: Skl endolysin (N-acetylmuramoyl-L-alanine amidase of the Streptococcus mitis prophage φSK137), wild type (enzyme)
- stoichiometry N [4]: 2
- stoichiometry N [5]: 2
- stoichiometry N [6]: 2

B1: Pal endolysin (N-acetylmuramoyl-L-alanine amidase of the pneumococcal bacteriophage Dp-1), wild type (enzyme, UniProt O03979 1-296, looked up)
chain: T1 sequence (O03979 1-296)
notes: Pal-coding region amplified from pMSP11; No tag; 1 μM equals 0.0345 mg/ml. 'Full length' rests on 'Pal-coding region was PCR amplified'; also called Pal WT; Pal NAM-amidase; source: E. coli BL21(DE3) or C41(DE3), pT7-7 derivative (pPal), purified (DEAE-cellulose, eluted with choline)
- stoichiometry N [7]: 2

B2: Pal C112S–C250S double mutant (enzyme, pneumococcal bacteriophage Dp-1, UniProt O03979 1-296, looked up)
chain: T1 sequence (O03979 1-296) with C112S, C250S
modifications: free thiols blocked with iodoacetamide before SDS-PAGE
notes: Pal, NAM-amidase of the pneumococcal Dp-1 bacteriophage, with Cys112 and Cys250 changed to serine; source: E. coli BL21(DE3) or C41(DE3), pT7-7 derivative (made from pPal-C250S), purified (DEAE-cellulose, eluted with choline)
- binding result [8]: binds

B3: Pal C112S mutant (enzyme, pneumococcal bacteriophage Dp-1, UniProt O03979 1-296, looked up)
chain: T1 sequence (O03979 1-296) with C112S
modifications: free thiols blocked with iodoacetamide before SDS-PAGE
notes: Pal, NAM-amidase of the pneumococcal Dp-1 bacteriophage, with Cys112 changed to serine; source: E. coli BL21(DE3) or C41(DE3), pT7-7 derivative, purified (DEAE-cellulose, eluted with choline)
- binding result [8]: binds
